Results from patent US20250326865A1, “C-MET PROTEIN-BINDING PEPTIDE COMPLEX” (PeptiDream Inc., priority 2021, published 2025).
Starred links: 1 amine or outer side, 2 acyl side, 3 side chain; linkers in the order of their positions; H or OH if unused. Positions of bridges follow the written chain, without caps; N, C: chain ends. Non-standard residues stand in square brackets, D forms with d. Chains are numbered I, II in the order given. No end group written: not given here. CO(CH2)2(OCH2CH2)17CO = O=C(CCOCCOCCOCCOCCOCCOCCOCCOCCOCCOCCOCCOCCOCCOCCOCCOCCOCCC(=O)[*:2])[*:1]; CO(CH2CH2O)9CH2CH2CO = O=C(CCOCCOCCOCCOCCOCCOCCOCCOCCOCCC(=O)[*:2])[*:1]; PEG12 = NCCOCCOCCOCCOCCOCCOCCOCCOCCOCCOCCOCCOCCC(=O)O; NMeF = CN[C@@H](Cc1ccccc1)C(=O)O; Ahp(2) = CCCCC[C@H](N)C(=O)O; hLys = NCCCCC[C@H](N)C(=O)O; NMeC = CN[C@@H](CS)C(=O)O

Target: human c-Met protein (human, UniProt P08581 25-1390)
Sequence (P08581 25-1390): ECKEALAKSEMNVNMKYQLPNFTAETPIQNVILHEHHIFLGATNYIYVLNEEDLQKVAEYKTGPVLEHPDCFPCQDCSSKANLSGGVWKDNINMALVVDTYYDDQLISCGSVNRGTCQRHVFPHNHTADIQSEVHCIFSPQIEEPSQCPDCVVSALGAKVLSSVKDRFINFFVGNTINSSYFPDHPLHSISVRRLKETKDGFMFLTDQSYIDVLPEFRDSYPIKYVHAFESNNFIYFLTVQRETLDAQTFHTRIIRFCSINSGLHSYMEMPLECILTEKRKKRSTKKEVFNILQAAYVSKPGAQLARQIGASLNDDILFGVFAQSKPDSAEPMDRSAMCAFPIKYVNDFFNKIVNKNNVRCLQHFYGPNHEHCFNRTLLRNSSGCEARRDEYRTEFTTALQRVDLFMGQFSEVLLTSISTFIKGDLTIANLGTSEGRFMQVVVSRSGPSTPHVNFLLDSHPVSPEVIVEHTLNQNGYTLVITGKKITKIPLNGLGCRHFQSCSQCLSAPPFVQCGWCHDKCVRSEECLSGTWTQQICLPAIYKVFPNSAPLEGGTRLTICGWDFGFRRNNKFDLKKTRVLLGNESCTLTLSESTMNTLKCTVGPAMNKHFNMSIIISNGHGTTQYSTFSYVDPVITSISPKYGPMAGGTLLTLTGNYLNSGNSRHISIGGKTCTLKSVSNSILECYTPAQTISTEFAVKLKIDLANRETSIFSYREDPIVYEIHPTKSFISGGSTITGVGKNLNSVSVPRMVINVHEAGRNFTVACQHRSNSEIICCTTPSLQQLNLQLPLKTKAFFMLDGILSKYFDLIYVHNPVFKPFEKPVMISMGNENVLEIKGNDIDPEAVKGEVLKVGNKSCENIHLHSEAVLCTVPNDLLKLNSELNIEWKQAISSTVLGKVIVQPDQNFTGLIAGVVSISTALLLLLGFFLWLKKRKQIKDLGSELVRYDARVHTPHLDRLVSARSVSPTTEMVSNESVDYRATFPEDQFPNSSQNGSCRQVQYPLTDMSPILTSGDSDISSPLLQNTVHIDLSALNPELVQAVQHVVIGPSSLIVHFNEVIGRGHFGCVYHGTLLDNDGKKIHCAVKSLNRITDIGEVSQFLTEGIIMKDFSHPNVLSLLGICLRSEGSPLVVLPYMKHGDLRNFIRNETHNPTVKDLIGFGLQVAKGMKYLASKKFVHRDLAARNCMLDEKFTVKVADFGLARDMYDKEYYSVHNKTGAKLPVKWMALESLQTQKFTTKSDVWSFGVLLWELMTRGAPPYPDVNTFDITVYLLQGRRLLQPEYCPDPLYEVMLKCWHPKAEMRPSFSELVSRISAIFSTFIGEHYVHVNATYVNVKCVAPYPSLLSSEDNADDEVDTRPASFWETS
Assay: cell-based or functional assay

B1: Peptide complex No. 19 in Table 4 (peptide SEQ ID NO: 9, GFs_c-Met_0012_4p; linker SEQ ID NO: 35) (peptide)
peptide: {CH2CO}-[NMeF]VAVS[NMeF]DDD[Ahp(2)]PRWS[NMeC]
chain: [PEG12]-Lys-[PEG12]
modifications: thioether I:N-I:15 (inferred); also: homodimer: two cyclic peptides joined by linker PEG12c-K-PEG12c, peptide C-terminus on linker
  C-Met Agonist Activity (C50; nM): phospho-c-Met AlphaLISA, A431 cells: 1.22 nM

B2: Peptide complex No. 31 in Table 4 (peptide SEQ ID NO: 25, GFs_c-Met-00014296p; linker SEQ ID NO: 38) (peptide)
peptide: {CH2CO}-[NMeF]QAVS[NMeF]DSD[Ahp(2)]PRWA[NMeC]
chain: GK[CO(CH2)2(OCH2CH2)17CO]KG
modifications: thioether I:N-I:15 (inferred); also: homodimer of two cyclic peptides joined by linker G-K-cPEG17c-K-G, peptide C-terminus on linker
  C-Met Agonist Activity (C50; nM): phospho-c-Met AlphaLISA, A431 cells: 0.68 nM

B3: Peptide complex No. 21 in Table 4 (peptide SEQ ID NO: 13, GFs_c-Met_0012_8p; linker SEQ ID NO: 35) (peptide)
peptide: {CH2CO}-[NMeF]VYVS[NMeF]DDD[hLys]PRWS[NMeC]
chain: [PEG12]-Lys-[PEG12]
modifications: thioether I:N-I:15 (inferred); also: homodimer: two cyclic peptides joined by linker PEG12c-K-PEG12c, peptide C-terminus on linker
  C-Met Agonist Activity (C50; nM): phospho-c-Met AlphaLISA, A431 cells: 2.17 nM

B4: Peptide complex No. 22 in Table 4 (peptide SEQ ID NO: 17, GFs_c-Met_0012_12p; linker SEQ ID NO: 35) (peptide)
peptide: {CH2CO}-[NMeF]VYVS[NMeF]DDD[Ahp(2)]PRWA[NMeC]
chain: [PEG12]-Lys-[PEG12]
modifications: thioether I:N-I:15 (inferred); also: homodimer: two cyclic peptides joined by linker PEG12c-K-PEG12c, peptide C-terminus on linker
  C-Met Agonist Activity (C50; nM): phospho-c-Met AlphaLISA, A431 cells: 2.37 nM

B5: Peptide complex No. 35 in Table 4 (peptide SEQ ID NO: 27, GFs_c-Met-00014302p; linker SEQ ID NO: 38) (peptide)
peptide: {CH2CO}-[NMeF]QAVS[NMeF]DPD[Ahp(2)]PRWS[NMeC]
chain: GK[CO(CH2)2(OCH2CH2)17CO]KG
modifications: thioether I:N-I:15 (inferred); also: homodimer of two cyclic peptides joined by linker G-K-cPEG17c-K-G, peptide C-terminus on linker
  C-Met Agonist Activity (C50; nM): phospho-c-Met AlphaLISA, A431 cells: 0.92 nM

B6: Peptide complex No. 38 in Table 4 (peptide SEQ ID NO: 28, GFs_c-Met-00014303p; linker SEQ ID NO: 36) (peptide)
peptide: {CH2CO}-[NMeF]TRVS[NMeF]DSD[Ahp(2)]PRWS[NMeC]
chain: GK[CO(CH2CH2O)9CH2CH2CO]KG
modifications: thioether I:N-I:15 (inferred); also: homodimer of two cyclic peptides joined by linker G-K-cPEG9c-K-G, peptide C-terminus on linker
  C-Met Agonist Activity (C50; nM): phospho-c-Met AlphaLISA, A431 cells: 0.65 nM

B7: Peptide complex No. 20 in Table 4 (peptide SEQ ID NO: 11, GFs_c-Met_0012_6p; linker SEQ ID NO: 35) (peptide)
peptide: {CH2CO}-[NMeF]VYVS[NMeF]DPD[Ahp(2)]PRWS[NMeC]
chain: [PEG12]-Lys-[PEG12]
modifications: thioether I:N-I:15 (inferred); also: homodimer: two cyclic peptides joined by linker PEG12c-K-PEG12c, peptide C-terminus on linker
  C-Met Agonist Activity (C50; nM): phospho-c-Met AlphaLISA, A431 cells: 2.22 nM

B8: Peptide complex No. 30 in Table 4 (peptide SEQ ID NO: 24, GFs_c-Met-00014301p; linker SEQ ID NO: 36) (peptide)
peptide: {CH2CO}-[NMeF]EAVS[NMeF]DPD[Ahp(2)]PRWS[NMeC]
chain: GK[CO(CH2CH2O)9CH2CH2CO]KG
modifications: thioether I:N-I:15 (inferred); also: homodimer of two cyclic peptides joined by linker G-K-cPEG9c-K-G, peptide C-terminus on linker
  C-Met Agonist Activity (C50; nM): phospho-c-Met AlphaLISA, A431 cells: 0.81 nM

B9: Peptide complex No. 39 in Table 4 (peptide SEQ ID NO: 29, GFs_c-Met-00014306p; linker SEQ ID NO: 38) (peptide)
peptide: {CH2CO}-[NMeF]TAVSLDSD[Ahp(2)]PRWS[NMeC]
chain: GK[CO(CH2)2(OCH2CH2)17CO]KG
modifications: thioether I:N-I:15 (inferred); also: homodimer of two cyclic peptides joined by linker G-K-cPEG17c-K-G, peptide C-terminus on linker
  C-Met Agonist Activity (C50; nM): phospho-c-Met AlphaLISA, A431 cells: 1.44 nM

B10: Peptide complex No. 36 in Table 4 (peptide SEQ ID NO: 27, GFs_c-Met-00014302p; linker SEQ ID NO: 36) (peptide)
peptide: {CH2CO}-[NMeF]QAVS[NMeF]DPD[Ahp(2)]PRWS[NMeC]
chain: GK[CO(CH2CH2O)9CH2CH2CO]KG
modifications: thioether I:N-I:15 (inferred); also: homodimer of two cyclic peptides joined by linker G-K-cPEG9c-K-G, peptide C-terminus on linker
  C-Met Agonist Activity (C50; nM): phospho-c-Met AlphaLISA, A431 cells: 0.73 nM

B11: Peptide complex No. 37 in Table 4 (peptide SEQ ID NO: 28, GFs_c-Met-00014303p; linker SEQ ID NO: 38) (peptide)
peptide: {CH2CO}-[NMeF]TRVS[NMeF]DSD[Ahp(2)]PRWS[NMeC]
chain: GK[CO(CH2)2(OCH2CH2)17CO]KG
modifications: thioether I:N-I:15 (inferred); also: homodimer of two cyclic peptides joined by linker G-K-cPEG17c-K-G, peptide C-terminus on linker
  C-Met Agonist Activity (C50; nM): phospho-c-Met AlphaLISA, A431 cells: 0.49 nM

B12: Peptide complex No. 23 in Table 4 (peptide SEQ ID NO: 9, GFs_c-Met_0012_4p; linker SEQ ID NO: 38) (peptide)
peptide: {CH2CO}-[NMeF]VAVS[NMeF]DDD[Ahp(2)]PRWS[NMeC]
chain: GK[CO(CH2)2(OCH2CH2)17CO]KG
modifications: thioether I:N-I:15 (inferred); also: homodimer of two cyclic peptides joined by linker G-K-cPEG17c-K-G, peptide C-terminus on linker
  C-Met Agonist Activity (C50; nM): phospho-c-Met AlphaLISA, A431 cells: 0.91 nM

B13: Peptide complex No. 32 in Table 4 (peptide SEQ ID NO: 25, GFs_c-Met-00014296p; linker SEQ ID NO: 36) (peptide)
peptide: {CH2CO}-[NMeF]QAVS[NMeF]DSD[Ahp(2)]PRWA[NMeC]
chain: GK[CO(CH2CH2O)9CH2CH2CO]KG
modifications: thioether I:N-I:15 (inferred); also: homodimer of two cyclic peptides joined by linker G-K-cPEG9c-K-G, peptide C-terminus on linker
  C-Met Agonist Activity (C50; nM): phospho-c-Met AlphaLISA, A431 cells: 0.61 nM

B14: GFs c-Met-0012-PEG12 dimer (peptide SEQ ID NO: 2, GFs_c-Met_0012p; linker SEQ ID NO: 35) (peptide)
peptide: {CH2CO}-[NMeF]VYVS[NMeF]DDD[Ahp(2)]PRWS[NMeC]
chain: [PEG12]-Lys-[PEG12]
modifications: thioether I:N-I:15 (inferred); also: homodimer: two cyclic peptides joined by linker PEG12c-K-PEG12c, peptide C-terminus on linker
  C-Met Agonist Activity (C50; nM): phospho-c-Met AlphaLISA, A431 cells: 0.76 nM

B15: Peptide complex No. 33 in Table 4 (peptide SEQ ID NO: 26, GFs_c-Met-00014299p; linker SEQ ID NO: 38) (peptide)
peptide: {CH2CO}-[NMeF]QAVS[NMeF]DPD[Ahp(2)]PRWA[NMeC]
chain: GK[CO(CH2)2(OCH2CH2)17CO]KG
modifications: thioether I:N-I:15 (inferred); also: homodimer of two cyclic peptides joined by linker G-K-cPEG17c-K-G, peptide C-terminus on linker
  C-Met Agonist Activity (C50; nM): phospho-c-Met AlphaLISA, A431 cells: 2.05 nM

B16: Peptide complex No. 26 in Table 4 (peptide SEQ ID NO: 22, GFs_c-Met-00014295p; linker SEQ ID NO: 36) (peptide)
peptide: {CH2CO}-[NMeF]EAVS[NMeF]DSD[Ahp(2)]PRWA[NMeC]
chain: GK[CO(CH2CH2O)9CH2CH2CO]KG
modifications: thioether I:N-I:15 (inferred); also: homodimer of two cyclic peptides joined by linker G-K-cPEG9c-K-G, peptide C-terminus on linker
  C-Met Agonist Activity (C50; nM): phospho-c-Met AlphaLISA, A431 cells: 0.75 nM

B17: Peptide complex No. 24 in Table 4 (peptide SEQ ID NO: 9, GFs_c-Met_0012_4p; linker SEQ ID NO: 36) (peptide)
peptide: {CH2CO}-[NMeF]VAVS[NMeF]DDD[Ahp(2)]PRWS[NMeC]
chain: GK[CO(CH2CH2O)9CH2CH2CO]KG
modifications: thioether I:N-I:15 (inferred); also: homodimer of two cyclic peptides joined by linker G-K-cPEG9c-K-G, peptide C-terminus on linker
  C-Met Agonist Activity (C50; nM): phospho-c-Met AlphaLISA, A431 cells: 1.27 nM

B18: Peptide complex No. 18 in Table 4 (peptide SEQ ID NO: 6, GFs_c-Met_0012_1p; linker SEQ ID NO: 35) (peptide)
peptide: {CH2CO}-[NMeF]TYVS[NMeF]DDD[Ahp(2)]PRWS[NMeC]
chain: [PEG12]-Lys-[PEG12]
modifications: thioether I:N-I:15 (inferred); also: homodimer: two cyclic peptides joined by linker PEG12c-K-PEG12c, peptide C-terminus on linker
  C-Met Agonist Activity (C50; nM): phospho-c-Met AlphaLISA, A431 cells: 1.31 nM

B19: Peptide complex No. 25 in Table 4 (peptide SEQ ID NO: 22, GFs_c-Met-00014295p; linker SEQ ID NO: 38) (peptide)
peptide: {CH2CO}-[NMeF]EAVS[NMeF]DSD[Ahp(2)]PRWA[NMeC]
chain: GK[CO(CH2)2(OCH2CH2)17CO]KG
modifications: thioether I:N-I:15 (inferred); also: homodimer of two cyclic peptides joined by linker G-K-cPEG17c-K-G, peptide C-terminus on linker
  C-Met Agonist Activity (C50; nM): phospho-c-Met AlphaLISA, A431 cells: 0.81 nM

B20: Peptide complex No. 29 in Table 4 (peptide SEQ ID NO: 24, GFs_c-Met-00014301p; linker SEQ ID NO: 38) (peptide)
peptide: {CH2CO}-[NMeF]EAVS[NMeF]DPD[Ahp(2)]PRWS[NMeC]
chain: GK[CO(CH2)2(OCH2CH2)17CO]KG
modifications: thioether I:N-I:15 (inferred); also: homodimer of two cyclic peptides joined by linker G-K-cPEG17c-K-G, peptide C-terminus on linker
  C-Met Agonist Activity (C50; nM): phospho-c-Met AlphaLISA, A431 cells: 0.88 nM

B21: Peptide complex No. 28 in Table 4 (peptide SEQ ID NO: 23, GFs_c-Met-00014298p; linker SEQ ID NO: 36) (peptide)
peptide: {CH2CO}-[NMeF]EAVS[NMeF]DPD[Ahp(2)]PRWA[NMeC]
chain: GK[CO(CH2CH2O)9CH2CH2CO]KG
modifications: thioether I:N-I:15 (inferred); also: homodimer of two cyclic peptides joined by linker G-K-cPEG9c-K-G, peptide C-terminus on linker
  C-Met Agonist Activity (C50; nM): phospho-c-Met AlphaLISA, A431 cells: 1.24 nM

B22: Peptide complex No. 34 in Table 4 (peptide SEQ ID NO: 26, GFs_c-Met-00014299p; linker SEQ ID NO: 36) (peptide)
peptide: {CH2CO}-[NMeF]QAVS[NMeF]DPD[Ahp(2)]PRWA[NMeC]
chain: GK[CO(CH2CH2O)9CH2CH2CO]KG
modifications: thioether I:N-I:15 (inferred); also: homodimer of two cyclic peptides joined by linker G-K-cPEG9c-K-G, peptide C-terminus on linker
  C-Met Agonist Activity (C50; nM): phospho-c-Met AlphaLISA, A431 cells: 1.26 nM

B23: Peptide complex No. 27 in Table 4 (peptide SEQ ID NO: 23, GFs_c-Met-00014298p; linker SEQ ID NO: 38) (peptide)
peptide: {CH2CO}-[NMeF]EAVS[NMeF]DPD[Ahp(2)]PRWA[NMeC]
chain: GK[CO(CH2)2(OCH2CH2)17CO]KG
modifications: thioether I:N-I:15 (inferred); also: homodimer of two cyclic peptides joined by linker G-K-cPEG17c-K-G, peptide C-terminus on linker
  C-Met Agonist Activity (C50; nM): phospho-c-Met AlphaLISA, A431 cells: 2.37 nM
